Measurements published in patent US5733890A, “Adenylate analogs as potent anti-herpes virus agents” (National Science Council, priority 1996, dated 1998).

Columns and labels:
Assay in all cases: Deamination kinetics of compounds as substrates of adenosine deaminase
Format in all cases: biochemical, calf
Conditions in all cases: other: adenosine deaminase substrate; buffer solutions
[1] = substrate: Nc1ncnc2c1ncn2[C@@H]1O[C@H](CO)[C@@H](O)[C@@H]1O
Source text: (§1) By following an established procedure [Ogilvie, K. K.; Nguyen-Ba, N.; Gillen, M. F.; Radatus, B. K.; Cheriyan, U. O.; Hanna, H. R.; Smith, K. O.; Galloway, K. S. Synthesis of A Purine Acyclonucleoside Series Having Pronounced Antiviral Activity. The Glyceropurines. Can. J. Chem. 1984, 62, 241-252.], we determined the rates of deamination of VI, 13, 37, 40, and 42 in the presence of calf mucosal adenosine deaminase (EC 3.5.4.4) in buffer solutions.

[2] = substrate: Nc1ncnc2c1ncn2COCCP(=O)(O)O
Source text: as §1

[3] = substrate: Nc1ncnc2c1ncn2COCCP(=O)(O)O[C@H]1[C@H](O)[C@H](n2cnc3c(N)ncnc32)O[C@@H]1CO
Source text: as §1

[4] = substrate: Nc1ncnc2c1ncn2COCCO
Source text: as §1

B1: calf mucosal adenosine deaminase (EC 3.5.4.4) (Bos taurus) (protein)
chain: MAQTPAFNKPKVELHVHLDGAIKPETILYYGRKRGIALPADTPEELQNIIGMDKPLSLPEFLAKFDYYMPAIAGCREAVKRIAYEFVEMKAKDGVVYVEVRYSPHLLANSKVEPIPWNQAEGDLTPDEVVSLVNQGLQEGERDFGVKVRSILCCMRHQPSWSSEVVELCKKYREQTVVAIDLAGDETIEGSSLFPGHVKAYAEAVKSGVHRTVHAGEVGSANVVKEAVDTLKTERLGHGYHTLEDATLYNRLRQENMHFEVCPWSSYLTGAWKPDTEHPVVRFKNDQVNYSLNTDDPLIFKSTLDTDYQMTKNEMGFTEEEFKRLNINAAKSSFLPEDEKKELLDLLYKAYGMPSPASAEQCL
notes: calf mucosal adenosine deaminase; from tissue; host or cells: calf mucosa
Km [1]: 45.3 µM
Km [2]: 247.5 µM
Km [3]: 166.2 µM
Km [4]: 138.0 µM
